# Results as given in publication PMC8386734.
# Tests used:
# [1] = biological target: DS-Cav1, prefusion-stabilized form of the RSV fusion (F) glycoprotein (human respiratory syncytial virus | not stated); assay: cryo-EM structure
# [2] = biological target: DS-Cav1, prefusion-stabilized form of the RSV fusion (F) glycoprotein (human respiratory syncytial virus | not stated); assay: crystal structure
substance,measurement,setting,value
"DS-Cav1, prefusion-stabilized form of the RSV fusion (F) glycoprotein (natural protein)",stoichiometry N,[1],3
same,stoichiometry N,[2],3
